# Reference: patent US20080085859A1, “Drug Promoting Ceramide Transport, Base Sequence for Producing the Drug, Method of Measuring Activity of Promoting Ceramide Release and Method of Measuring Activity of Promoting Intermembrane Ceramide Transfer” (JAPAN SCIENCE AND TECHNOLOGY AGENCY, priority 2003, published 2008)
# B1: hCERT protein: human CERT protein having an amino acid sequence of SEQ ID NO:1 (protein)
# chain: MSDNQSWNSSGSEEDPETESGPPVERCGVLSKWTNYIHGWQDRWVVLKNNALSYYKSEDETEYGCRGSICLSKAVITPHDFDECRFDISVNDSVWYLRAQDPDHRQQWIDAIEQHKTESGYGSESSLRRHGSMVSLVSGASGYSATSTSSFKKGHSLREKLAEMETFRDILCRQVDTLQKYFDACADAVSKDELQRDKVVEDDEDDFPTTRSDGDFLHSTNGNKEKLFPHVTPKGINGIDFKGEAITFKATTAGILATLSHCIELMVKREDSWQKRLDKETEKKRRTEEAYKNAMTELKKKSHFGGPDYEEGPNSLINEEEFFDAVEAALDRQDKIEEQSQSEKVRLHWPTSLPSGDAFSSVGTHRFVQKVEEMVQNHMTYSLQDVGGDANWQLVVEEGEMKVYRREVEENGIVLDPLKATHAVKGVTGHEVCNYFWNVDVRNDWETTIENFHVVETLADNAIIIYQTHKRVWPASQRDVLYLSVIRKIPALTENDPETWIVCNFSVDHDSAPLNNRCVRAKINVAMICQTLVSPPEGNQEISRDNILCKITYVANVNPGGWAPASVLRAVAKREYPKFLKRFTSYVQEKTAGKPILF
# modifications: HeLa cell
# Assays:
# LY-A cell = assay: recovery of ceramide transport function of LY-A cell by hCERT stable expression; type: cell-based, Chinese hamster; conditions: FIG. 9
# Description: Also in the original LY-A cell to which retrovirus receptor has not been introduced, it has been ascertained as described below that ceramide transport function is recovered by hCERT expression. hCERT inserted pcDNA3.1/Neo plasmid was introduced into LY-A cell by performing lipofection, after G418 resistant cell was selected, transformed strain LY-A/hCERT was purified by a limited-dilution. Subsequently, the measurement of the sensitivity to MCD, metabolism labeling experiment of lipid using [^14C] serine and [^14C] choline and cell labeling using C5-DMB-Cer and fluorescene microscopy observation were similarly performed.
# [1] = releasing reaction assay with other lipids as substrate (specificity); type: biochemical; conditions: FIG. 15
# Protocol: Hereinafter, the standard method will be described in detail, however, even if the described conditions are changed, a method of detecting ceramide release promotion activity having means for separating releasing ceramide by a centrifugation principally belongs to the present invention. The lipid membrane containing ceramide was prepared so that it contains 12.5 nCi (225 pmol) per sample of [palmitoyl-1-^14C]N-palmitoyl-D-ethyro-sphigosine (hereinafter, may be referred to as ^14C-ceramide) on the basis of the mixed lipid consisting of phosphatidylcholine and phosphatidylethanolamine derived from egg yolk at the ratio of 4:1 and its concentration becomes 2.5 mg/mL. This lipid membrane is required at the rate of 20 μL per one sample of the activity measurement. […]
# hCERT protein or its recombinant protein described above as a protein sample to be targeted (under the standard conditions, the amount of protein corresponding to 450 picomoles, which is 2-fold molar equivalent amount of ceramide contained in the donating membrane was used) were messed up to 30 μL using the buffer 2 [50 mM Hepes-NaOH buffer (pH7.4) to which 100 mM NaCl and 0.5 mM EDTA have been added]. […] The activity for promoting ceramide release with hCERT was calculated by measuring the radioactive activity of ^14C in the supernatant fraction using a liquid scintillation counter. […]
molecule,measurement,setting,value
B1,"reactivity with respect to MCD, SM biosynthesis, C5-DMB-Cer transfer from ER to Golgi apparatus region",LY-A cell,recovered to the nature of the wild type
same,"diacylglycerol releasing promotion, of the activity with respect to ceramide",[1],about 5%
same,"releasing reaction with respect to diacylglycerol, cholesterol, phosphatidylcholine, sphingomyelin, sphingosine",[1]; substrate changed from ceramide to other lipids,did not indicate a significant releasing reaction
